# Results as given in the supplement of paper PMC12764529.
# ± gives the half width of the 95% confidence interval.
# Columns and labels:
# [1] = folding stability dG unfold from trypsin proteolysis; higher = more stable
# Method in brief: (§1)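 Unfolding free energy was derived, per protease or combined, by relating Bayesian-fitted K50 values from sequencing counts to a sequence-predicted unfolded-state K50 and a shared folded-state K50. The underlying digests exposed cysteine-free mini-proteins under 80 residues, in a PA-tagged cDNA display construct, to trypsin and chymotrypsin at 11 threefold-diluted concentrations and to a no-protease condition. A filter kept only designs with AlphaFold2 dimer inter-PAE above 15.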
# [2] = folding stability dG unfold from chymotrypsin proteolysis; higher = more stable
# Method in brief: as §1
# [3] = folding stability dG unfold (combined trypsin and chymotrypsin); higher = more stable
# Method in brief: as §1
Sequence,folding stability dG unfold [1] [kcal/mol],folding stability dG unfold [2] [kcal/mol],folding stability dG unfold [3] [kcal/mol]
SAGGKKVIITKVETNKNGKKTYTVTLYYKDKKTNEWKKVAEFTFESKEEAENAAKELAKKLNLKIIPSAGGS [r16_512_TrROS_Hall],3.08 ± 0.087,5 ± 0.088,4.77 ± 0.11
SAGGKKVIVIEGLTEEEILEKIKEEFPEPVEVIIRRPDGYVVKITVDAKTREIKKVEVVKVPPPEKPSAGGS [r8_225_TrROS_Hall],1.57 ± 0.15,2.01 ± 0.16,1.79 ± 0.29
SAGGKLIIVIEVNGETIEVDLEEAETLEEAIQKVLDEIRERFPEIGTVRIKVFDEKGKLIKEIEIKLKSAGG [r13_257_TrROS_Hall],3.25 ± 0.12,3.6 ± 0.18,3.51 ± 0.17
SAGGKLLEELNVEKVEVVEVKEFSLPPLPLLVLLPTVTVTFKDGSKVKFKVLFLYDPSNPKPIVVAGSAGGS [r8_422_TrMRF],2.42 ± 0.1,3.64 ± 0.048,3.07 ± 0.16
SAGGKLPKLPPGQIEIMDFQIEPDPDGRYKMSFMITITAPDNGKKVVVMLEMWMPPDGEMKTGIGIMPSAGG [r13_263_TrROS],1.9 ± 0.14,2.85 ± 0.15,2.65 ± 0.34
SAGGKLTLELEFELEDGLRVRLRVEVDEDGELRVTLEVEPEPPPPPIRVVKNEDGSEYVYRNGKLYKLSAGG [r13_151_TrROS_Hall],3.55 ± 0.16,5.18 ± 0.45,4.16 ± 0.84
SAGGKMVKIKIVVEVKVEEEVKEGEKVETFKVELTIELPEEEVEKLKAELEKLFPDVKIVEIEKVEPSAGGS [r8_490_TrROS_Hall],3.39 ± 0.24,3.86 ± 0.47,3.7 ± 0.34
SAGGKNVKKYVPIEIEIEAPSPEVAEATAEEIEKIIREKFPGAKVEVEMEPLPDGGYKLKVKVYVPVGSAGG [r13_17_TrMRF],1.82 ± 0.059,3.47 ± 0.059,3.11 ± 0.07
SAGGKPAKPTRLDFPDDDVKTVPANTKIILTRPDGSKLVIELPEEEFTAKPDEWVFETPTSKITFPIASAGG [r13_643_TrMRF],0.767 ± 0.092,0.657 ± 0.15,0.725 ± 0.21
SAGGKPGEKPRIRIQVKVRYPGNGRKQSITIEIVPDAIEQGLSASELADEIARKMGMPVKIEEIEILSAGGS [r16_554_TrROS],1.873 ± 0.015,1.692 ± 0.013,1.79 ± 0.04
SAGGKPKEIKIKVEVEEKEVNGKKYLVVKIELEVDGKKIEIELVVEMSEEEKEKAKKLAEELLKKLKSAGGS [r8_480_TrROS_Hall],2.6 ± 0.21,2.77 ± 0.22,2.82 ± 0.4
SAGGKPLTVEDAKELAESLAKPLKEELGLGNVKILAAPVEVGGEEGKPAEVRIGFLFDLSEDGEFVGSAGGS [r16_751_TrMRF],-0.405 ± 0.31,0.0162 ± 0.16,-0.112 ± 0.23
SAGGKPNWVWFKITINVTPEQLENMTLDEIADRVIDELMKLGFPIKKIEIDEIQWDGDRVTIYIRIRVSAGG [r13_432_TrROS],4.18 ± 0.16,4.59 ± 0.099,4.35 ± 0.14
SAGGKPPGLSEIPLPDNKTEKVPVNSDIVLKRPDGTELKYKLPPEPVTTEKNKYTIKLPNGEITIPINSAGG [r13_643_JUSTAS],-1.03 ± 0.26,-0.0683 ± 0.26,-0.0992 ± 0.32
SAGGKPPKIVVKVEKAPNPETGTYTYKVVLYDPVTGKAYVKPVKTKTPEELEKKAKEVAEELAKELASAGGS [r8_480_TrMRF],0.727 ± 0.025,1.34 ± 0.12,1.17 ± 0.084
SAGGKPRILLRRETAPDGRPYYVLQVLRRDPSDDGWTPVLEHRFETPEEAERYARELAEKTGYELVGSAGGS [r16_512_TrMRF],4 ± 0.11,4.9 ± 0.11,4.72 ± 0.075
SAGGKRRTINFDIEGMTPEKFVHMARMAIRNLPDPEQVTITINMRNPMWRRWFIELAKELPGIEIEFMSAGG [r13_718_TrROS],2.52 ± 0.061,3.43 ± 0.044,3.19 ± 0.15
SAGGKTIEVWFLFPPGMPPEEVASTIAKLLPPGFKIDVEILEVQPDPGGEDYIIFKATIYYPDDGQPISAGG [r13_12_TrROS],3.34 ± 0.15,4.68 ± 0.16,4.26 ± 0.25
SAGGKTIPIWFRVPPGMTPEEAADELADEIANELQQQNGKEIEIKIDDVEPNPNGWNIVRIKIEVDPSAGGS [r8_156_TrROS],0.176 ± 0.3,0.433 ± 0.43,0.26 ± 0.32
SAGGKTIYFPISEARNFLKEAIDNGLDNIRIEVFNGDKPREIDIPPGNLDDLIDNIPPNSWVQIEPKSAGGS [r16_636_TrROS],-0.645 ± 0.095,0.536 ± 0.089,0.221 ± 0.072
SAGGKTLVITVEAPPEDWDKILELAREALELGGDVVVVAPFPDGLTVTVRAEKPLGKIVEVTVAPDDASAGG [r13_873_TrMRF],0.578 ± 0.053,1.5 ± 0.071,1.15 ± 0.095

Sequence,folding stability dG unfold [1] [kcal/mol],folding stability dG unfold [2] [kcal/mol],folding stability dG unfold [3] [kcal/mol]
SAGGKTVTTPEQILELIKENPGKTYTITITVPKENQKKVEELKKALEEAGLTVEENENGTLTVTIKPSAGGS [r16_335_TrROS_Hall],2.2 ± 0.17,3.89 ± 0.14,3.42 ± 0.28
SAGGKVFTPEHLEELLKNVPADDPNATLTVTVEVPVVVLPTTDGDDNPLPAAAAPATVTLPITVLPASAGGS [r16_708_TrMRF],0.0702 ± 0.072,1.2 ± 0.018,0.837 ± 0.07
SAGGKVKIVKIEIEEVDGKLKIRIVVEVDTPEDLEALKKAGVKKLKVEKRRLPNGRLLVVIEVEVEVKSAGG [r13_506_TrROS_Hall],2.46 ± 0.077,3.86 ± 0.074,3.42 ± 0.062
SAGGKVKVVEIRYFPGTNTVEILVEDPGPYLATIRIPAAPDAPIEIDEDANFRVPDAPVVLGEVRPPSAGGS [r16_515_TrMRF],1.19 ± 0.027,0.843 ± 0.12,1.09 ± 0.072
SAGGKVVVVPFPGPVTPETVAALAAKFIEEGLYDVPLVVVSEVEGRRPDGRPGRRRFGFVYVAKAPKSAGGS [r16_44_TrMRF],1.23 ± 0.051,1.98 ± 0.13,1.59 ± 0.1
SAGGKVYRLPDGTRVLEVEVDGELYRLVVRRPDGEELVLEFESREEALEAAKALAEAGWEIVAVERVPSAGG [r13_727_TrROS_Hall],0.787 ± 0.038,0.807 ± 0.062,0.86 ± 0.06
SAGGKVYYIEIPPELLEAFPDLVVEPVEQPEDFVVAPVFLSDKVLLVPIRVFSEDGKELFDFTLTSNPSAGG [r13_129_TrMRF],1.18 ± 0.027,1.77 ± 0.024,1.62 ± 0.037
SAGGKYEYDPDNGYYRDEDGKMYYPMPPQIPPIEIPIPINLPNGQKLNIPVEFRTIEDALDALKKFFSAGGS [r8_440_TrROS],0.697 ± 0.033,1.13 ± 0.091,1.01 ± 0.14
SAGGKYKIVEITIKVEPGQSPEEIAAEIAKKLAPPGEKVKVKVEKKDGYLRIYIINEETGEVVEEFELSAGG [r13_724_TrROS_Hall],1.66 ± 0.051,1.91 ± 0.06,1.88 ± 0.14
SAGGLAPVYKTEDGVYLITPYNPETGELLETIPISEEDIEELSKEYGRDLTIEEIVKKLGYETEITVASAGG [r13_836_TrMRF],0.786 ± 0.057,0.99 ± 0.03,0.969 ± 0.06
SAGGLDPDGKIRWQPITITIEIPIPPGDEELANKIADWLRDLGIEVEIKRNPNGYIQITVEFWVLVIDSAGG [r13_702_TrROS],3.82 ± 0.33,5.03 ± 0.29,4.89 ± 0.31
SAGGLEILEVDPDTYTITIRFGDRPLEFTVPPDYPPTITITEDPDGSVTLTIEVPDRTETFTIPRELVESAG [r5_500_TrMRF],1.18 ± 0.021,1.84 ± 0.09,1.61 ± 0.083
SAGGLIIPEEYEIVEKKAEILPDGSLRYTFILRPKSGELLLVEIRYPPDGSIEIEARRLTPEELKKALSAGG [r13_773_TrMRF],3.13 ± 0.076,3.71 ± 0.045,3.56 ± 0.074
SAGGLKDILKELGFPIKSVTVQPMPMPNGMPMRTVSITFENPNGPKFEIEVMVMPNGEVMIDIEWVKPSAGG [r13_818_TrROS],2.23 ± 0.092,2.69 ± 0.11,2.48 ± 0.22
SAGGLKEIAKQLGPGADKVEIEWEPQPHDDMEMYRWKIRVKNPNNGKKRKLEVSIMYDPNGNIRSIMISAGG [r13_358_TrROS],1.85 ± 0.12,2.38 ± 0.077,2.34 ± 0.14
SAGGLKIVETKTEPEIGKRYVVIEVYKPETGKPILYVVPLDLEKGENSPEAVAKAILKELKLPPGVKASAGG [r13_362_TrMRF],0.58 ± 0.082,1.71 ± 0.16,1.24 ± 0.18
SAGGLLVADEAGVPLSPVPPVPPIPVQVTFPDGTKVTIEYYPGLNEVKVEYEGDDPAKVAEIVKEILKSAGG [r13_701_JUSTAS],0.146 ± 0.15,0.444 ± 0.11,0.443 ± 0.13
SAGGLNIKFEILEVYPSPNGMRMIIVRMTIEYPVPVYRRDPNGEWRPMPPGQEPVTIEIDFYIMVTPSAGGS [r16_693_TrROS],3.67 ± 0.11,5.11 ± 0.13,4.76 ± 0.18
SAGGLPGLSAEELARRLAERLREALAAAGYTVEIELTVEITVTDEDGRTRTFTFTLRIRVEPPPPPPSAGGS [r16_550_TrROS_Hall],4.05 ± 0.069,5.15 ± 0.074,4.8 ± 0.12
SAGGLPPGWKPIDIMVLVPPGEPLTEDQVEELAKEIARELQEKGVTIDVRVWPTDDWYFVSVDIQVPDSAGG [r13_442_TrROS],2.08 ± 0.11,1.31 ± 0.13,1.73 ± 0.18
SAGGLRVHPNSLYIWIPPGGNFDDFVKEIAQELQKKGKPMEIKVEPFPDGWYWIRIKVDGKDIEIWMSAGGS [r16_771_TrROS],2.02 ± 0.065,3.24 ± 0.039,3.02 ± 0.1
